Columns and labels:
[1] = target: T1, CD3 (cluster of differentiation 3) (UniProt P07766 23-126); experiment: method not stated; monovalent KD used to calculate CD3 receptor occupancy
T1 construct: also called CD3 antigen

[2] = target: CD3 on T cells of human peripheral blood mononuclear cells (PBMCs) (human, UniProt P07766 23-207); experiment: cell-based or functional assay
[3] = target: T2, FcRH5 (fragment crystallizable receptor-like 5) on MOLP-2 cells (human, UniProt Q96RD9 16-977); experiment: cell-based or functional assay
T2 sequence (looked up): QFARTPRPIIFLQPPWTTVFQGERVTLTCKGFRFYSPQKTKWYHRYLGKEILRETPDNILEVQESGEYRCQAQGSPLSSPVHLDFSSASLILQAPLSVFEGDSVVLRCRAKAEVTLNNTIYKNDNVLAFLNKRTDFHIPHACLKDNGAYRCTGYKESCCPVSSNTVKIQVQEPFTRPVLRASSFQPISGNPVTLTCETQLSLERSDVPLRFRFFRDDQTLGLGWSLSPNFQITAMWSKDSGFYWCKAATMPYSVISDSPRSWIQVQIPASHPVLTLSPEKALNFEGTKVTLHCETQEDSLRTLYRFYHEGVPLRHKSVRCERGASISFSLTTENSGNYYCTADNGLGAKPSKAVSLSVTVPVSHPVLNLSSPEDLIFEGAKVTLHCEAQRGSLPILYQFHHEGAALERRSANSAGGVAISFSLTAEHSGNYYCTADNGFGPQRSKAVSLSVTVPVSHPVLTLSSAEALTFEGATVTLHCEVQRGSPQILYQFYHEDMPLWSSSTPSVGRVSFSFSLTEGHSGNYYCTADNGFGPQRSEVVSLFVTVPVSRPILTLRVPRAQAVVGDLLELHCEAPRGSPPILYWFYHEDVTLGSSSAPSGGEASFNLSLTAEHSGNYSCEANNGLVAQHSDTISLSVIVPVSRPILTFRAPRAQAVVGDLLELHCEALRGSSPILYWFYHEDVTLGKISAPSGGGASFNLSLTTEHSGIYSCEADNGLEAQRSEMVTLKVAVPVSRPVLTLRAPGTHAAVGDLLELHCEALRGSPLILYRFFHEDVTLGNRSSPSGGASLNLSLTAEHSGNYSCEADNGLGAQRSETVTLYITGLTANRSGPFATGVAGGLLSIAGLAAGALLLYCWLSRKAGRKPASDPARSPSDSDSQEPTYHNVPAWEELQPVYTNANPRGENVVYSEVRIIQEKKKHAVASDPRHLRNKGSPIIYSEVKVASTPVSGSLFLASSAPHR

CD3 on T cells of human peripheral blood mononuclear cells (PBMCs), sequence (P07766 23-207): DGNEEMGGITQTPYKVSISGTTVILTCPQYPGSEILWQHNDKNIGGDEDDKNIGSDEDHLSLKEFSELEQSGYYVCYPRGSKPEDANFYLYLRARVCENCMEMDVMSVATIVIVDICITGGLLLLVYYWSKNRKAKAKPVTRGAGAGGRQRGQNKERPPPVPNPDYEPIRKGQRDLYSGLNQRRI
T1 sequence (P07766 23-126): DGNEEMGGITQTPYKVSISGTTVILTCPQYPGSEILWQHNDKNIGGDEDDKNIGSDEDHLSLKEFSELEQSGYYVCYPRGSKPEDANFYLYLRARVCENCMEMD

B1: cevostamab (bispecific antibody, human IgG1, kappa, N297G)
heavy 1: not shown
light 1: DIQMTQSPSSLSASVGDRVTITCKASQDVRNLVVWFQQKPGKAPKLLIYSGSYRYSGVPSRFSGSGSGTDFTLTISSLQPEDFATYYCQQHYSPPYTFGQGTKVEIKRTVAAPSVFIFPPSDEQLKSGTASVVCLLNNFYPREAKVQWKVDNALQSGNSQESVTEQDSKDSTYSLSSTLTLSKADYEKHKVYACEVTHQGLSSPVTKSFNRGEC
heavy 2: EVQLVQSGAEVKKPGASVKVSCKASGFTFTSYYIHWVRQAPGQGLEWIGWIYPENDNTKYNEKFKDRVTITADTSTSTAYLELSSLRSEDTAVYYCARDGYSRYYFDYWGQGTLVTVSSASTKGPSVFPLAPSSKSTSGGTAALGCLVKDYFPEPVTVSWNSGALTSGVHTFPAVLQSSGLYSLSSVVTVPSSSLGTQTYICNVNHKPSNTKVDKKVEPKSCDKTHTCPPCPAPELLGGPSVFLFPPKPKDTLMISRTPEVTCVVVDVSHEDPEVKFNWYVDGVEVHNAKTKPREEQYGSTYRVVSVLTVLHQDWLNGKEYKCKVSNKALPAPIEKTISKAKGQPREPQVYTLPPSREEMTKNQVSLSCAVKGFYPSDIAVEWESNGQPENNYKTTPPVLDSDGSFFLVSKLTVDKSRWQQGNVFSCSVMHEALHNHYTQKSLSLSPGK
light 2: not shown
notes: Humanized full-length non-glycosylated IgG1 kappa, knobs-into-holes; also called BFCR4350A; RO7187797
[1]
  Kd: 2.6 nM
[2]
  EC50 for T-cell activation in the in vitro human PBMC:MOLP-2 co-culture: 0.0588 µg/mL
[3]
  EC50 for T-cell activation in the in vitro human PBMC:MOLP-2 co-culture: 0.0588 µg/mL

Reference: patent US20240018245A1 (Genentech, published 2024)
